Results on one molecule are retold here after article PMC4358367, “Structural basis of diverse membrane target recognitions by ankyrins” (eLife, 2014).

Assay [1] addresses T1, AnkB_repeats site 1 mutant 'FF' (Phe131 and Phe164 to Gln) (human, UniProt Q01484 28-873, Phe131 substituted with Gln | Phe164 substituted with Gln).
T1 sequence: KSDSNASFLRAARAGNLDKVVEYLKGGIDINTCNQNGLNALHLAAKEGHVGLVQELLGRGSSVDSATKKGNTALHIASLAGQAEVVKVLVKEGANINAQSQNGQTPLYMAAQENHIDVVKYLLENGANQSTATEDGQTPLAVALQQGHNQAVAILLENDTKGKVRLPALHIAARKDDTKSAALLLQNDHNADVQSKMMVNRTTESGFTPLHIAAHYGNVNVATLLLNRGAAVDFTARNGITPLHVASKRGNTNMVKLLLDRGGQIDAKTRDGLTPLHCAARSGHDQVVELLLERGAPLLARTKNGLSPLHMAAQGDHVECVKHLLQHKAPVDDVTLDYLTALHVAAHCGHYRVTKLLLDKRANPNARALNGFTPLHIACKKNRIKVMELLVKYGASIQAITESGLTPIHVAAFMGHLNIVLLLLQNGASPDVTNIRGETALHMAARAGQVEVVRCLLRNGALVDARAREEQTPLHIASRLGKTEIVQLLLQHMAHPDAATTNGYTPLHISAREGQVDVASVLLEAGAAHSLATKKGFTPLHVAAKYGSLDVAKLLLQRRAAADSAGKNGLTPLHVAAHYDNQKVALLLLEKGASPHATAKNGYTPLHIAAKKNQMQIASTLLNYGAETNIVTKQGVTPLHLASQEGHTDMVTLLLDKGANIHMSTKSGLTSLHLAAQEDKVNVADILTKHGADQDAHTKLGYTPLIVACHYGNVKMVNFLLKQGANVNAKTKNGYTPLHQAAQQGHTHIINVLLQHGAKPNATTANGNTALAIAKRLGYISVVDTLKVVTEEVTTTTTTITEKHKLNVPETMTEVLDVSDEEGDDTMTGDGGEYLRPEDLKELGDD
Briefly: FP.

For assay [2], the target named is T2, AnkB_repeats (24 ANK repeats of human 220 kDa ankyrin-B, residues 28–873) (human, UniProt Q01484 28-873).
T2 construct: ankyrin-B (AnkB), human, 220 kDa isoform used as template, ANK repeats, residues 28-873; source: E. coli BL21 (DE3), purified
T2 sequence (looked up): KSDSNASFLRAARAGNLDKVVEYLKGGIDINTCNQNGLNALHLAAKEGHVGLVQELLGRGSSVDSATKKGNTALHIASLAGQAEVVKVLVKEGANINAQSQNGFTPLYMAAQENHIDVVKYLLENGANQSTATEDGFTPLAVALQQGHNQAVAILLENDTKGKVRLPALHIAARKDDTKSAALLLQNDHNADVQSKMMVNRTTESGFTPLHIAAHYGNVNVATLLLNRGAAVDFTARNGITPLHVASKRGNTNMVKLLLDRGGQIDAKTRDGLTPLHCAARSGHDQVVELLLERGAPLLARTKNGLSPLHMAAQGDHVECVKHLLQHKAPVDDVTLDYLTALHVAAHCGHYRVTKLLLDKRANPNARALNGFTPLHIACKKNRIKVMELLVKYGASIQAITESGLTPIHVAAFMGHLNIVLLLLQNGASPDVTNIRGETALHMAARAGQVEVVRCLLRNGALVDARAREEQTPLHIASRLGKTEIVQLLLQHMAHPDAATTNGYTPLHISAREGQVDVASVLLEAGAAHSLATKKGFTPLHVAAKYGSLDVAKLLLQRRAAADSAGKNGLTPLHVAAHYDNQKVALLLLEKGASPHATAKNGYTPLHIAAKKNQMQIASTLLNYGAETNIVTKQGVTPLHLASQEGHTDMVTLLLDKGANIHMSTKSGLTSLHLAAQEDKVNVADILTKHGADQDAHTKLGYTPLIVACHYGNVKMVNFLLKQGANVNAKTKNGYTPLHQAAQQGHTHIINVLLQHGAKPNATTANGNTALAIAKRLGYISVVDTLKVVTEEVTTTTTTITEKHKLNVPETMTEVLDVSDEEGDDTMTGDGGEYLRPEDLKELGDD
The assay is described as follows: fluorescence polarisation; FITC-labeled peptide (~1 µM) titrated with AnkB_repeats WT or mutants; 25°C; 50 mM Tris pH 8.0, 100 mM NaCl, 1 mM DTT, 1 mM EDTA; one-site binding model. The settings on record: both partners purified. (Polarisation of emitted light reports the rotation of a fluorescent probe.)

Where no end group is shown, it is not given here.

B1: Cav1.3 peptide (mouse Cav1.3 residues 2134–2166), FITC-labeled (peptide, UniProt Q99246-4 2134-2166, looked up)
peptide: ELQDFGPGYSDEEPDPGREEEDLADEMICITTL
modifications: also: FITC label (position not given here)
notes: voltage-gated calcium channel Cav1.3, mouse, residues 2134-2166; also called voltage-gated calcium channel Cav1.3 peptide; source: synthetic peptide (commercially synthesized)
In general, Kd refers to the concentration at which binding is half-saturated. High values mean weaker binding, low ones tighter binding. In assay [1], B1 came in with a Kd of 3.3 µM. In assay [2], the binding result was “binds”.
